{"source": "the nanobody polyreactivity screen of Harvey et al. (2022)"}
{"assay": "yeast display, Sf9 membrane polyspecificity reagent, FACS + sequencing; frameworks hold sequencing errors", "outline": "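Galactose-induced (36–48 hours) yeast carrying a synthetic nanobody display library were exposed to 10% biotinylated, detergent-solubilized Sf9 membrane reagent at 4 °C for 1 hour. FACS followed streptavidin microbead enrichment, using low and high (top ~1%) gates for expression (anti-HA) and reagent binding (streptavidin). Colony PCR, MiSeq 2 × 250 sequencing and CDR-length filtering followed. Labels for polyreactivity reflect the gate of origin.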"}
{"sequence": "QVQLVESGGGLVQAGGSLRLRCAASGIIFYRYAMGWYRQAPGKERELVAAINTSGGRTYYADSVKGRFTISRDNAKNTVYLQMNSLKPEDTAVYYCAAYYSPVGFQYDYWGQGTQVTVSS", "polyreactivity (PSR sort gate)": "high polyreactivity"}
{"sequence": "QVQLVESGGGLVQAGGSLRLRCAASGITFPNYAMGWYRQAPGKERELVAAISSGGSTTYADSVKGRFTISRDNAKNTVYLQMNSLKPEDTAVYYCNADISAHYVIGVPTGYYWGQGTQVTVSS", "polyreactivity (PSR sort gate)": "low polyreactivity"}
{"sequence": "QVQLVESGGGLVQAGGSLRLRCAASGLIFARNAMGWYRHAPGKERELVAAISRRGGSTYYADSVKGRFTISRDNAKNTVYLQMNSLKPEDTAVYYCAADTPYWQSSKYDYWGQGTQVTVSS", "polyreactivity (PSR sort gate)": "high polyreactivity"}
{"sequence": "QVQLVESGGGLVQAGGSLRLRCAASGLIFYVYAMGWYRQAPGKERELVAAISYRGGSTYADSVKGRFTISRDNAKNTVYLQMNSLKPEDTAVYYCAAQRWYVYGLKYHYGYWGQGTQVTVSS", "polyreactivity (PSR sort gate)": "high polyreactivity"}
{"sequence": "QVQLVESGGGLVQAGGSLRLRCAASGNTFAYYAMGWYRQAPGKERELVASITGSGTSTYYADSVKGRFTISRDNEKNTVYLQMNSLKPEDTAVYYCAKRYYYKWFGYWGQGTQVTVSS", "polyreactivity (PSR sort gate)": "high polyreactivity"}
{"sequence": "QVQLVESGGGLVQAGGSLRLRCAASGNTFRVYPMGWYRQAPGKESELVAAITWSGSRTYYADSVKGRFTISRDNAKNTVYFQINSLKPEDTAVYYCAARFVRAAYNYWGLGTQVTVSS", "polyreactivity (PSR sort gate)": "high polyreactivity"}
{"sequence": "QVQLVESGGGLVQAGGSLRLRCAASGRIFNGYGMGWYRQAPGKERELVAAITWSGGGTYYADTVKGRFTISRDNAKNTVYLQRNSLKPEDTAVYYCAAYSSSYPDYDSWGQGTQVTVSS", "polyreactivity (PSR sort gate)": "low polyreactivity"}
{"sequence": "QVQLVESGGGLVQAGGSLRLRCAASGRIFRPYTMGWYRQAPGKERELVAGITSSGGGTYYADSVKGRFTISRDNAKNTVYLHMNSLKPEDSAVYYCNRRGWSRTHQYDYWGQGTQVTVSS", "polyreactivity (PSR sort gate)": "high polyreactivity"}
{"sequence": "QVQLVESGGGLVQAGGSLRLRCAASGRNFGDNRMGWYRQAPGKERELVTYAYSVKGRFTISRDNAKNTVYLQMNSLKPEDTSVYYCNTDPQRFSGLDENYWGQGTQVTVSS", "polyreactivity (PSR sort gate)": "low polyreactivity"}
{"sequence": "QVQLVESGGGLVQAGGSLRLRCAASGRTFARYAMGWYRQAPGKERELVAAISWSGGSTYYADSVKARFTISRDNAKNTVYLQMNSLKPVDTAVYYCAARRPTSPRRYESWGQGTQVTVSS", "polyreactivity (PSR sort gate)": "high polyreactivity"}
{"sequence": "QVQLVESGGGLVQAGGSLRLRCAASGRTFELYAMGWYRQAPGKERALVAAITASGGTTYYADSVKGRFTISRDNAKNTVYLQMNSLKPEDTAVYYCAAEYSYYPFTDYDYWGQGTQVSVSS", "polyreactivity (PSR sort gate)": "high polyreactivity"}
{"sequence": "QVQLVESGGGLVQAGGSLRLRCAASGRTFGQNAMGLYRQAPGKEREFVAAISSSGGSTYYADSVKGRFTISRDNAKNTVYLQMNSLKPEDTAVYYCNARQYYYRSGAYASRYLYNYWGQGTQVTVSS", "polyreactivity (PSR sort gate)": "high polyreactivity"}
{"sequence": "QVQLVESGGGLVQAGGSLRLRCAASGRTFQYNAMGWYRQAPGKESELVAANTSNGGSTYYADSVKGRFTISRDNAKNTVYLQMNSLNPEDTAVYYCAKAYRYVDRGYRLLRYGFWGQGTQVTVSS", "polyreactivity (PSR sort gate)": "high polyreactivity"}
{"sequence": "QVQLVESGGGLVQAGGSLRLRCAASGRTFRYYAMGWYRQAPGKEREVVAAITRSGGSTYYADSVKGRFTISRDNAKNTVYLQMNSLKPEDTAVYYCAASRFTSYGIDYDYCGQGTQVTVSS", "polyreactivity (PSR sort gate)": "high polyreactivity"}
{"sequence": "QVQLVESGGGLVQAGGSLRLRCAASGRTFYRYAMGWYRQAPGKERELVASINRGGSTNYADSVKGRFTISRDNAKNTVYLQMNSLKPEDTAVYYCACYCYCYWGQGTQVTVSS", "polyreactivity (PSR sort gate)": "low polyreactivity"}
{"sequence": "QVQLVESGGGLVQAGGSLRLRCAASGSIFEEYAMGWSRPAPGKERELVAAITSRGGSTYYADSVKGRFTISRDNAKNNVYLQMNSLKPEDTAVYYCAAGVASLTTGSYDYWGQGTQVTVSS", "polyreactivity (PSR sort gate)": "low polyreactivity"}
{"sequence": "QVQLVESGGGLVQAGGSLRLRCAASGSIFGPNALGWYRQAAGKERELVAAISSGGSTNYADSVKGRFTISRDNAKNTVYLQMNSLKPEDTAVYYCAKDNYLDPPYFYRFAGYDYRGQGTQVTVSS", "polyreactivity (PSR sort gate)": "low polyreactivity"}
